# According to article PMC5588548, “Suramin Inhibits Osteoarthritic Cartilage Degradation by Increasing Extracellular Levels of Chondroprotective Tissue Inhibitor of Metalloproteinases 3” (Molecular Pharmacology, 2017):
# B1: TIMP-3: C-terminally FLAG-tagged human TIMP-3 expressed in human embryonic kidney 293 cells; endogenous metalloproteinase inhibitor (protein, UniProt P35625 24-211, looked up)
# Metalloproteinase inhibitor 3: CTCSPSHPQDAFCNSDIVIRAKVVGKKLVKEGPFGTLVYTIKQMKMYRGFTKMPHVQYIHTEASESLCGLKLEVNKYQYLLTGRVYDGKMYTGLCNFVERWDQLTLSQRKGLNYRYHLGCNCKIKSCYYLPCFVTSKNECLWTDMLSNFGYPGYQSKHYACIRQKGGYCSWYRGWAPPDKSIINATDP
# modifications: C-terminal FLAG tag
# Test system: HTB94 chondrosarcoma cells
# Format: cell-based
# Method: Cells (HTB94 chondrosarcoma cells, primary porcine chondrocytes, or human osteoarthritic chondrocytes) were plated overnight (6 × 10^5 cells per well of a 12-well plate) in DMEM containing 10% FCS and washed three times in serum-free DMEM.
# To evaluate endocytosis of exogenously added TIMP-3, cells were incubated with recombinant TIMP-3 (1 nM in 1.5 ml DMEM with 0.1% FCS) for 0–24 hours. Conditioned media were concentrated by precipitation with trichloroacetic acid [5% (v/v), 4°C, 18 hours]. After centrifugation (13,000 rpm, 4°C, 10 minutes), protein-containing pellets were resuspended in SDS sample buffer (30 µl), electrophoresed (7 µl) on a 10% polyacrylamide gel, and immunoblotted onto polyvinylidene fluoride. After blocking in 5% (m/v) BSA in Tris-buffered saline, TIMP-3 levels were analyzed using an M2 anti-FLAG antibody (Sigma-Aldrich), an alkaline phosphatase–conjugated anti-mouse secondary antibody (Promega, Southampton, UK), and a Western Blue stabilized substrate for alkaline phosphatase (Promega). Immunoblots were analyzed by densitometry using Phoretix 1D densitometry software (TotalLab, Newcastle-upon-Tyne, UK), and TIMP-3 remaining in the medium (mean ± S.D., n = 3) was calculated relative to pixel volume at a t of 0 hours (defined as 100%).
molecule,measurement,value
B1,half-life of TIMP-3 uptake from the medium,4.0 ± 1.3 h
